{
  "source": "patent US20190048080A1",
  "about": "(SHANGHAI KANDA BIOTECHNOLOGY, published 2019)",
  "biological_target": "T1, recombinant human CTLA-4-Fc fusion protein (R&D Systems) (human, UniProt P16410 37-162)",
  "T1 construct": "range 37-162; also called fusion protein CTLA-4/Fv; recombinant protein CTLA-4; not shown: IgG constant region (Fc) of the bought fusion protein",
  "T1 sequence (looked up)": "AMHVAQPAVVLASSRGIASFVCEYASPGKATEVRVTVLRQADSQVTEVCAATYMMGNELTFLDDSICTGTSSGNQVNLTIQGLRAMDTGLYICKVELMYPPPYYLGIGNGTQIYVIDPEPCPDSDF",
  "assay": "phage display panning on coated CTLA-4/Fc, then ELISA of purified scFv on coated recombinant CTLA-4",
  "data": [
    {"binder": "human anti-CTLA-4 single-chain variable region (scFv) antibody (scFv, also called anti-CTLA-4 scFv; CTLA-4scFv) scFv: QVQLVQSGGGVVQPGRSLRLSCAASGFTFSSYGMHWVRQAPGKGLEWVAVIWYDGSRQYYADSVKGRFTISRDDSKNTMYLQMNSLRAEDTAVYYCARGGFWGAFDIWGQGTMVTVSSGSGGGGSDVVMTQSPGTLSLSPGEGATLSCRASQHVISSYLAWYQQKPGQAPRLLVYGASSRDTGVSDRFTGSGSGTDFTLTISRLEPEDSAVYFCQQYGTSPWTFGQGTKLEIKR", "values": [
      {"measurement": "binding result", "result": "binds"}
    ]}
  ]
}
